In patent US12209142B2, “SARS-CoV-2 epitope-targeted peptide immunostimulants” (Institute for Systems Biology, priority 2020, dated 2025):
“Also recorded” adds a separate entry of the source. Bridges are numbered along the chain shown (N, C = ends). Where no end group is shown, it is not given here. [ ]: non-standard residue; d: D form. Lys(N3) = [N-]=[N+]=NCCCC[C@H](N)C(=O)O; Pra = C#CC[C@H](N)C(=O)O

Tests used:
[1] = target: T1, full-length recombinant MrkA protein (Klebsiella pneumoniae, UniProt P12267); assay: Sandwich ELISA of PCC binding to full-length MrkA; conditions: for binding / affinity to full-length MrkA protein (ELISA signal): compared with cy(LLFFF); for affinities to MrkA (likely): ELISA, full-length recombinant MrkA
T1 construct: purchased MyBiosource MBS1248970
T1 sequence (P12267 23-202): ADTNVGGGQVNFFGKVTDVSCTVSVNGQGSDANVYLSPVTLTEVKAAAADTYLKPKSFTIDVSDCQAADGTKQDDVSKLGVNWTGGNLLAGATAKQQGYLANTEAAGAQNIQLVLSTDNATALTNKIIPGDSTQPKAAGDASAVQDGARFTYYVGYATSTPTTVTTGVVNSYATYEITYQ
Method: The screen yielded 26 hits (Table 2) that were sequenced, scaled up, and tested for binding to full-length recombinant MrkA in solution by single-point sandwich Enzyme-linked immunoassays (ELISAs) (FIG. 8). HPraGly is present before X1 in each peptide and Az4 follows X5 in each peptide.
An alanine scan was performed to establish which residues of cy(LLFFF) (SEQ ID NO:5) contribute most to MrkA binding. In this assay, a sandwich ELISA is used to quantify the affinity of several cy(LLFFF) (SEQ ID NO:5) analogues, in which one residue is substituted with an alanine, towards full-length MrkA protein. The ELISA results in FIG. 4 show lower signal for every alanine-substituted cy(LLFFF) (SEQ ID NO:5) analogue compared to unmodified cy(LLFFF) (SEQ ID NO:5), establishing that the native compound has the highest affinity. […] Thus, these two C-terminal phenylalanine residues (FIG. 3A, arrows in inset) play critical roles in MrkA binding, and are targets for modifications to improve binding. Another important detail of these alanine scan results is a strong dependence of MrkA binding on the residue position, independent of residue type. For example, cy(LLAFF) (SEQ ID NO:9) and cy(LLFFA) (SEQ ID NO:11) have very different binding affinities, despite having the same phenylalanine-to-alanine substitution.
In vitro ELISA assays. ELISA assays for MrkA-binding and epitope selectivity were performed on clear NeutrAvidin Coated High Capacity Plates (ThermoFisher, 15507). The buffer used for all washes and to dissolve all compounds was TBST+0.1% BSA (TBS+0.05% Tween 20+0.1% BSA, pH 7.3) and, unless otherwise stated, steps were conducted at room temperature. Each wash involved a brief 20 s agitation, and all conjugation, blocking, and incubation steps were performed with gentle agitation over the entire stated time period. The general procedure for an ELISA assay was: wash 3×200 μL/well, conjugate with 2 μM of biotinylated compound for 2 h at room temperature (100 μL/well), wash 3×200 μL/well, blocked overnight in 5 wt % milk at 4° C., wash […] with wash buffer, incubate with titrated compound (e.g., MrkA or epitope) for 1 h, […], incubate with primary antibody […] for 1 h (100 μL/well), wash 3×200 μL/well, incubate with 1:2,000 anti-rabbit secondary antibody-horseradish peroxidase conjugate (Cell signaling Technologies, 7074S) for 1 h, 3×200 μL/well, develop with the Microwell Peroxidase Substrate System (2-C) (SeraCare, 5120-0047) using 100 μL/well for 1-40 minutes, and quench using 1 M H2SO4 (aq.) at 100 μL/well. For MrkA binding assays, biotinylated PCCs were conjugated to the well surface, recombinant MrkA with an N-terminal 6×His-SUMO-tag (MyBiosource, MBS1248970) was titrated at the desired concentration, and the primary antibody was His-tag antibody, pAb, Rabbit (Genscript, A00174) at a 1:5,000 dilution. For epitope selectivity assays, biotinylated SynEps were conjugated, DNP-conjugated AR-PCCs were titrated at a desired concentration, and the primary antibody was anti-DNP antibody produced in Rabbit (Sigma-Aldrich, D9656) at a 1:8,000 dilution. […] For binding tests in the context of mouse sera, the “titrated compound” described in the steps above was dispersed in a solution containing the desired concentration of mouse serum.

[2] = Isocratic point of PCCs (C18 prep-scale column elution); format: physicochemical
Description: The efficacy of AR-PCCs in vivo will not only depend on target binding, but also pharmacokinetic (PK) properties, of which clearance pathway is an important parameter. […] Modifications include single- and double-residue substitutions, residue removal, and the addition of non-ionic PEG and charged poly-arginine tags (Ri, where i represents the number of arginine). Results of this optimization are shown in FIG. 4B, which plots IP versus the affinity of the compound to MrkA, relative to cy(LLFFF) (SEQ ID NO:5).
PCC compounds were purified on a Waters Autopurification system, which isolated compounds based on MS peaks corresponding to protonated [M+1H]^+ and [M+2H]^2+, and/or sodium adducts [M+Na]^+ and [M+2Na]^2+. The isocratic points of PCCs were determined based on the elution of the compound from a C18 prep-scale column. Synthetic epitopes were either purified on the Waters Autopurification System, or by semi-preparative HPLC and then using matrix-assisted laser desorption/ionization mass spectroscopy to identify fractions with the desired m/z ratio. The resulting peptides were lyophilized, the yield determined by mass difference or UV-visible absorbance, and resuspended at a concentration of up to 10 mM peptide in DMSO. Peptides were stored at −80° C. before thawing for each use.

[3] = system: K. pneumoniae cells (strain BAA 1705); assay: Gentamicin protection assay: phagocytosis and opsonophagocytic killing (OPK) by macrophages; format: cell-based, Klebsiella pneumoniae; conditions: AR-PCC 5 μM, 1 h
Method: FIGS. 7A and 7B show a gentamicin protection assay that evaluates EPI-driven phagocytosis and opsonophagocytic killing (OPK) of K. pneumoniae cells by murine bone-marrow-derived macrophages. FIG. 7A is a flow diagram depicting the assay used to evaluate EPI-driven opsonophagocytic killing (OPK) of K. pneumoniae cells. Briefly, K. pneumoniae cells (strain BAA 1705) opsonized by EPIs (AR-PCCs) and anti-DNP antibodies were incubated with macrophages for 1 or 24 h. Macrophages were lysed, and the lysate was plated to obtain bacterial colonies that were subsequently counted. FIG. 7B is a plot of colony counts for various samples subjected to the OPK assay. […] All EPIs (AR-PCCs) were used at a 5 μM concentration, measurements were conducted in triplicate, and error bars reflect standard deviations. cy(LLFFA) is SEQ ID NO:11.
It also tested whether DNP-conjugated EPIs could promote the opsonophagocytic killing (OPK) of K. pneumoniae by macrophages. This was tested by using an OPK assay. Briefly, K. pneumoniae cells were treated with EPI and then anti-DNP antibody before being exposed to macrophages for either 6 or 24 hours. During this incubation period, macrophages that recognize K. pneumoniae cells will phagocytose them, and phagocytosed bacteria will remain viable for up to 6 hours, but within 24 hours are rendered inviable by OPK. Thus, macrophages were isolated after 6 and 24 hours of incubation with K. pneumoniae, lysed them, and plated and grew the lysate, which yielded bacterial colonies that reflect the phagocytosis (at 6 hrs) or OPK (at 24 hrs) of bacteria.
Given that cy(LLFFF)-DNP (SEQ ID NO:5) recruits antibodies to K. pneumoniae surfaces, it was expected that K. pneumoniae opsonized in this manner would be more susceptible to phagocytosis by macrophages. AR-PCC-driven phagocytosis and OPK were quantified by a gentamicin protection assay, as depicted in FIG. 7A. For this assay, K. pneumoniae cells (strain BAA 1705) were treated with cy(LLFFF)-DNP (SEQ ID NO:5), opsonized by anti-DNP antibodies, and then incubated with murine bone-marrow-derived macrophages (BMDMs). BMDMs were subsequently exposed to a solution containing gentamicin, to which K. pneumoniae strain BAA 1705 is susceptible, to kill any extracellular bacteria. Phagocytosed bacteria remain viable inside BMDMs for at least 1 h, yet are rendered inviable after 24 h by OPK (FIG. 13). Macrophages harvested at 1 h and 24 h were lysed and plated to generate bacterial colonies, which were enumerated to quantify phagocytosis and OPK.
Opsonophagocytic killing (OPK) assays. Klebsiella pneumoniae BAA1705 was treated with DNP-PCCs followed by incubation with anti-DNP antibody, as described above in the “Cell-Based ELISAs” section. These opsonized bacteria were then used to infect BMDMs at a multiplicity of infection of 50 for 0.5 h at 37° C. Bacteria were then washed by using RPMI 1640 Media and BMDMs were left in cell culture medium containing gentamicin (100 μg/ml). After 1 h and 24 h BMDMs were washed to remove gentamicin and intracellular bacteria were harvested by lysing BMDMs in RPMI media containing 0.2% Triton X 100. Bacterial CFUs were enumerated by plating onto LB agar. Bacterial counts at 1 h indicated the degree of opsonization while those at 24 h served as a measure of microbicidal activity of macrophages. For these measurements, anti-MrkA antibody and K. pneumoniae antiserum were used at dilutions of 5 μg/mL each.

[4] = system: MrkA-expressing K. pneumoniae cells; assay: Whole-cell ELISA of biotinylated PCC binding
[5] = strain BAA 1705, PCC 5 μM or lower

## cy(LLAFF): alanine-substituted cy(LLFFF) analogue ([Lys(N3)]LLAFFX; triazole 1-7; not fully specified (residue 7); printed as cy(LLAFF))
[1]
  binding / affinity to full-length MrkA protein (ELISA signal): Modestly lower binding

## cy(ALFFF): alanine-substituted cy(LLFFF) analogue ([Lys(N3)]ALFFFX; triazole 1-7; not fully specified (residue 7); printed as cy(ALFFF))
[1]
  binding / affinity to full-length MrkA protein (ELISA signal): Modestly lower binding

## Ref. compound (LLFFF; not fully specified (bridges); printed as cy(LLFFF); also: cyclised (cy), ring-closing ends (Pra and azidolysine) not shown in this chain)
[1]; ELISA 1, [MrkA] for ELISA N/A
  Relative affinity (ratio of ELISA signal versus cy(LLFFF)): 1.00
[1]; [MrkA] for ELISA 25 nM (ELISA 2, 5, 6)
  Relative affinity (ratio of ELISA signal versus cy(LLFFF)): 1.00
[1]; [MrkA] for ELISA 50 nM (ELISA 3)
  Relative affinity (ratio of ELISA signal versus cy(LLFFF)): 1.00
[1]; [MrkA] for ELISA 100 nM (ELISA 4)
  Relative affinity (ratio of ELISA signal versus cy(LLFFF)): 1.00
[2]; N-terminal tag Bio-Peg10-peg10-
  Isocratic point (%): 74.53%
[2]; N-terminal tag Bio-peg5-
  Isocratic point (%): 78.85%
[2]; N-terminal tag Bio-peg10-
  Isocratic point (%): 75.88%

## cy(YRHLG): additional MrkA ligand with lower affinity (XYRHLG[Lys(N3)]; bridge 1-7; not fully specified (residue 1, bridges); printed as cy(YRHLG))
[1]
  affinities to MrkA (likely): ~1 µM
  binding / affinity to full-length MrkA protein (ELISA signal): lower affinities to MrkA

## cy(TTFFF): additional MrkA ligand with lower affinity ([Lys(N3)]TTFFFX; bridge 1-7; not fully specified (residue 7, bridges); printed as cy(TTFFF))
[1]
  affinities to MrkA (likely): ~1 µM
  binding / affinity to full-length MrkA protein (ELISA signal): lower affinities to MrkA

## cy(LLFFA)-DNP: DNP-conjugated control cy(LLFFA) ([Lys(N3)]LLFFAX; triazole 1-7; not fully specified (residue 7); printed as cy(LLFFA); also: DNP label)
[3]
  phagocytosis / OPK activity at 1 h, AR-PCC plus anti-DNP: None of these treatments elicited phagocytosis above basal levels
  phagocytosis at 1 h, AR-PCC only (no anti-DNP): None of these treatments elicited phagocytosis above basal levels

## cy(LLFFF)+R6-DNP: optimized compound cy(LLFFF)+R6 tagged with DNP ([Lys(N3)]LLFFF[Pra]RRRRRR; bridge 1-7; not fully specified (bridges); also: tagged with DNP, position not given here)
[3]
  phagocytosis / OPK activity at 1 h, AR-PCC plus anti-DNP: comparable to that of cy(LLFFF)-DNP
  phagocytosis at 1 h, AR-PCC only (no anti-DNP): None of these treatments elicited phagocytosis above basal levels
[3]; murine BMDMs
  colony counts at 1 h, AR-PCC plus anti-DNP antibody: 85,000 CFU

## cy(LAFFF): alanine-substituted cy(LLFFF) analogue ([Lys(N3)]LAFFFX; triazole 1-7; not fully specified (residue 7); printed as cy(LAFFF))
[1]
  binding / affinity to full-length MrkA protein (ELISA signal): Modestly lower binding

## cy(LLFFA): control compound differing from cy(LLFFF) by a single phenyl moiety ([Lys(N3)]LLFFA[Pra]; triazole 1-7)
[4]; MrkA/B/C knockout KPPR1
  whole-cell ELISA signal, MrkA-knockout KPPR1: ELISA intensities comparable to baseline
[4]; strain BAA 1705, 50 μM PCC
  whole-cell ELISA signal at high PCC concentration, LB or G-CAA: strong and comparable ELISA signals
[4]; [5]
  whole-cell ELISA 450 nm absorbance, cells cultured in G-CAA (high MrkA): near-baseline absorbances
  whole-cell ELISA 450 nm absorbance, cells cultured in LB (low MrkA): near-baseline absorbances
[4]; wild type KPPR1 (ATCC 43816), G-CAA media, 5 μM down to 5 nM
  whole-cell ELISA signal, wild type KPPR1: much lower intensities; also recorded: Much lower binding

## cy(GVHRL): additional MrkA ligand with lower affinity (XGVHRL[Lys(N3)]; triazole 1-7; not fully specified (residue 1); printed as cy(GVHRL))
[1]
  affinities to MrkA (likely): ~1 µM
  binding / affinity to full-length MrkA protein (ELISA signal): lower affinities to MrkA
